{
  "source": "the nanobody polyreactivity screen of Harvey et al. (2022)",
  "data": [
    {"test": "yeast display, Sf9 membrane polyspecificity reagent, FACS + sequencing; frameworks hold sequencing errors", "how_it_was_run": "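Using colony PCR, genes from sorted yeast display clones were amplified, then sequenced on MiSeq at 2 × 250 and filtered by CDR length. The clones had been stained with 10% biotinylated, detergent-solubilized Sf9 membrane reagent for 1 hour at 4 °C and sorted by FACS into low and high (top ~1%) gates on anti-HA and streptavidin fluorescence. Polyreactivity labels come from the gate of origin.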", "values": [
      {"sequence": "QVQLVESGGGLVQEGGSLRLSCAASGLICQHNARVWSRHAPGKERELVAAISRSAGSSYYADSEKGRFTISRDNAKNTVYLQMNCLKPEDTAVFYCAKRPTPTTKDDTVRYGYWGQGSQVTVSS", "polyreactivity (PSR sort gate)": "low polyreactivity"},
      {"sequence": "QVQLVESGGGLVQAGSSLRLSCAASGRTFGGYVMGWYRQAPGKERELVAAISSSAGSTYYADSVKGRFTISRDNAKNTVYLQMNSLKPEDTAVYYCAKRSYNPYDHYYRYQYGYWGQGTQVTVSS", "polyreactivity (PSR sort gate)": "high polyreactivity"},
      {"sequence": "QVQLVESGGGLVQAGGSLRLSCAASGYIFIWYDMGWYRQAPGKERELVAAISGSGGSTYYADSVKGRFTISRDNAKNTVYLQMNSLKPEDTAVYYCAAYVPRGNSEVIAMDYWGQGTQVTVSS", "polyreactivity (PSR sort gate)": "low polyreactivity"},
      {"sequence": "QVQLVESGAGLVQAGGRLRISCAASGSTFDGNTMGWYRQAPGKERELVAAISGSGGSTYYADSVKGRFTISRDNAKNTVYLQMNSLKPEDTAVYYCAADFRVGRYDYWGQGTQVTVSS", "polyreactivity (PSR sort gate)": "high polyreactivity"},
      {"sequence": "QVQLVESGGGLVQAGGSLRLSCAASGGTFQWNAMGWYRQAPGNERELVAAITSGGRTNYADSVKGRFTISRDNAKTTVSFQLNSLKPEDTAVYYCAATAWDRYIDYDYWGQGTQETVSS", "polyreactivity (PSR sort gate)": "high polyreactivity"},
      {"sequence": "QVQLVESGGGLVQAGGSLRLSCAASGRIFAAYAMGWYRQAPGKERELVAGISRGGRTYYADSVKGRFTISRDNAKNTVYLQMNSLKPEDTAVYYCAKRATGQYSITAYGYDYWGQGTQVTVSS", "polyreactivity (PSR sort gate)": "low polyreactivity"},
      {"sequence": "QVQLVESGGGLVQPGGSLRLSCAASGRTFYEYAMGWYRPAPGKERELVAGITSGGSTNYADSVKGRFTISRDNAKNTVYLQMNSLKPEDTAVYYCAASYWGYEYDYWGQGTQVTVSS", "polyreactivity (PSR sort gate)": "low polyreactivity"},
      {"sequence": "QVQLVESGGGLVQAGGSLRLSCAASGSTFSVNAMGWYRQAPGKERELVAAISSTGSTKYADSVKGRFTISRDNAKNTVYLQIISLKPEDTAVYCAASNADYEYYPFSDWYFSPYDYWGQGTQVTVSS", "polyreactivity (PSR sort gate)": "low polyreactivity"},
      {"sequence": "QVQLVESGGGLVQAGGSLRLSCAASGITFPRYVMGWYRQAPGKEREFVAAINYSGGRTYYADSVKGRFTISRDNAKNTVYLQMKSLKPEDTAVYYCAVDLHVWPFWFDYWGQGTQVTVSS", "polyreactivity (PSR sort gate)": "high polyreactivity"},
      {"sequence": "QVQLVESGGGLVQAGGSLRLSCAASGFTIYIYVMGWYRQAPGKETELVADITWSGGRTYYADSVKGRFTISRDNAKNTVYLQMNSLKPEDTAVYYCAASYPGLSYHKYEYWGQGTQVTVSS", "polyreactivity (PSR sort gate)": "high polyreactivity"},
      {"sequence": "QVQLVESGGGLVQAGGSLRLSCAASGFTLYHYAMGWYRQAPGKERELVAAITTSGSRTYYADSVKGRFTISRDNAKNTVYLQMNSLKPEDTAVYYCNAVASSTEYDYWGQGTQVTVSS", "polyreactivity (PSR sort gate)": "high polyreactivity"},
      {"sequence": "QVQLVESGGGLVQAGGSLRLSCAASGFTFGYYVMGWYRQAPGKERELVAAITSGGRTKYADSVKGRFTISRDNAKNTVYLQMNSLKPEDTAVYYCAAKSRVHVDYWGQGTQVTVSS", "polyreactivity (PSR sort gate)": "high polyreactivity"},
      {"sequence": "QVQLVESGGGLVQAGGSLRLSCAASGRIFLTKAMGWYRQAPGKERELVADISRGGSTYADSVKGRFTISRDNAKNTVYLQMNSLKPEDTAVYYCAADEYSPGDSRTRYDYWGQGTQVTVSS", "polyreactivity (PSR sort gate)": "low polyreactivity"},
      {"sequence": "QVQLVESGGGLVQAGGSLRLSCAASGSTFGLKAMGWYRQAPGKERELVAAITSGGTYYADSVKGRFTISRDNAKNTVYLQMNSLKPEDTAVYYCAADGTWSIYGGLYYWGQGTQVTVSS", "polyreactivity (PSR sort gate)": "low polyreactivity"},
      {"sequence": "QVQLVESGGGLVQAGGSLRLSCAASGRTFYRYAMGWYRQAPGKERELVASINRGGSTNYADSVKGRFTISRDNAKNTVFLQMNCLKPEDTAVYYCACYCYCYWGQGTQVTVSS", "polyreactivity (PSR sort gate)": "low polyreactivity"},
      {"sequence": "QVQLVESGGGLVQAGGSLRLSCAASGFTFVFYAMGWYRQAPGKERELVAGISRTGGSTYYADSVKGRFTISRDNAKNTVYLQMNSLKPEDTAVYYCNAARFTRRDYWGQGTQVTVSS", "polyreactivity (PSR sort gate)": "high polyreactivity"},
      {"sequence": "QVQLVESGGGLVQAGGSLRLSCAASGRMGWYRQAPGKERELVAGITSSGRTYYADSVKGRFTISRDNAKNTVYLQMNSLKPEDTAVYYCATYGYWGQGTQVTVSS", "polyreactivity (PSR sort gate)": "high polyreactivity"},
      {"sequence": "QVQLVESGGGLVQAGGSLRLSCAASGLIIYYYAMGWYRQAPGKERELVAAITWTAGSTSYADSVKGRFTISRDNAKNTVYLQMNSLKPEDTAVYYCAADYRHDTFSNQYDYWGQGTQVTVSS", "polyreactivity (PSR sort gate)": "low polyreactivity"},
      {"sequence": "QVQLVESGGGLVQAGGSLRLSCAASGRPFPGNAMGWYRPAPGKERELVAAISSSGGSTHYADSGKGRFTISRDTAKNTVYLQMNSLKPEDTAVYYCNARSIGYSYRYYDWGQGTQVTVSS", "polyreactivity (PSR sort gate)": "high polyreactivity"},
      {"sequence": "QVQLVESGGGLVQAGGSLRLSCAASGRTLAFYAMGWYRQAPGKERELVAAITRGGGTYYADSVKGRFTISRDNAKNTVDLQMNSLIPEDTAVYYCNADSGFRWGAFDYWGQGTQLTVSS", "polyreactivity (PSR sort gate)": "low polyreactivity"},
      {"sequence": "QVQLVESGGGLVQAGGSLRLSCAASGSIFGYYAMGWYRQAPGKERELVASISGSGGTTYYADSVKGRFTISRDNAKNTVYLQMNSLKPEDTAVYYCAARRSIYGYPFVTSRRGYWGQGTQVTVSS", "polyreactivity (PSR sort gate)": "high polyreactivity"},
      {"sequence": "QLQLVESGGGLVQAGGSLRLSCAASGLTFYWYAMGWYRQAPGKERELVAAITSTGSTYYADSVKGRFTISRDNAKNTVYLQMNILKPEDTAVYYCNADFPANWGWDYDYWGQGTQVTVSS", "polyreactivity (PSR sort gate)": "low polyreactivity"},
      {"sequence": "QVQLVESGGGLVQAGGSLRLSCPASGSIFWPNAMGWYRQAPGKERELVASINSGSGSTYYADSVKGRFTISRDNAKNTVYLQMNSLKPEDTAVYYCNAAGAYPYYSEDYYWGQGTQVTVSS", "polyreactivity (PSR sort gate)": "low polyreactivity"},
      {"sequence": "QVQLVESGGGLVQAGGSLRLSCAASGRILKRNAMGWYRQSPGKERELVAAISWSTGTTYYADSVKGRFTISRDNAKNTVYLQMNSLKPEDTAVYYCAKQIVSGRRVDRNDYWGQGTQVTVSS", "polyreactivity (PSR sort gate)": "low polyreactivity"},
      {"sequence": "QVQLVESVGGLVQAGGSLRLSCAASGRTFPYYAKGGYRQAPWKERELVATISSGGITNYADSVKVRFTISRDNAKNTVYLQMNSLKPEDTAVYYCAADRHWSAGLWRYDYWGQGTQVTVSS", "polyreactivity (PSR sort gate)": "high polyreactivity"},
      {"sequence": "QVQLVESGGGLVQAGGSLRLSCAASGRTLTQNAMGWYRQAPGKERELVATISWTAGSTYYADSVKGRFTISRDNAKNTVYLQMNSLKPEDTAVYYCAADVFYSIYDYWGQGTQVTVSS", "polyreactivity (PSR sort gate)": "low polyreactivity"},
      {"sequence": "QVQLVESGGGLVQAGGSLRLSCAASGITFRDNGMGWYRQAPGKESELVAAITSGGSTYYADSVKGRFTISRDNAKNTVYLQMNSLKPEDTAVYYCAAKRIKRRGWRQLSWYDSWGQGTQVTVSS", "polyreactivity (PSR sort gate)": "high polyreactivity"},
      {"sequence": "QVQLVESGGGLVQAGGSLRLSCATSGRIFHRYAMGWYRQAPGKERELVAGISSSGGSTYADSVKGRFTISRDNAKNTVYLQMNSLKPEDTAVYYCAKYFTDVSRHTYDYWGQGTQVTVSS", "polyreactivity (PSR sort gate)": "high polyreactivity"},
      {"sequence": "QVQLVDSGGGLVQAGGSLRLSCAASGRTIYNYDMGWYRQAPGKERELVARIFSGGSTNYADSVKGRFTISRDNAKNTVYLQMNSLKPEDTAVYYCNAVLESQFIGWKFFYWGQGTQVSVSS", "polyreactivity (PSR sort gate)": "high polyreactivity"},
      {"sequence": "QVQLVESGGGLVQAGGSLRLSCAASGFILARNAMGWYRQAPGKERELVAAITRRGGSTYYADSVKGRFTISRDNAKNTVYLQMNSLKPEDTAVYYCAAAAGPIPQERYYWGQGTHVTVSS", "polyreactivity (PSR sort gate)": "high polyreactivity"},
      {"sequence": "QVQLVESGGGLVQAGGSLRLSCAASGFIFDGYAMGWYRQAPGKERELVAAISSVGSTYYADSVKGRFTISRDNAKNTVYLQMNSLKPEDTAVYYCARGLEERYDYWGQGTQVTVSS", "polyreactivity (PSR sort gate)": "low polyreactivity"},
      {"sequence": "QVQLVESGGGLVQAGGSLRLSCAASGRIFESYAMGWYRQAPGKERELVAAISSGGGTTYYADSVKGRFTISRDNAKNTVYLQMNSLKPEDTAVYYCAADALSDEYDYWGQGTQVTVSS", "polyreactivity (PSR sort gate)": "low polyreactivity"},
      {"sequence": "QVQLVESGGGLVQAGGSLRLSCAASGRLMGWYRQAPGKERELVAAIRVSSGSTYYADSVKGRFTISRDNAKNTVYLQMNSLKPEDTAVYYCAKYVYLGYVRQVPYFRYDYWGQGTQVTVSS", "polyreactivity (PSR sort gate)": "high polyreactivity"},
      {"sequence": "QVQLGESGGGLVQAGGSLRLSCAASGIIFRYYAMGWYRQAPGKERELVAAISSSGVSTYYADSVKGRFTISRDNAQNTVYLQMNSLKPEDTAVYYCAAVTTWRMDYWGQGTQVTVSS", "polyreactivity (PSR sort gate)": "high polyreactivity"},
      {"sequence": "QVQLVESGGGLVQAGGSLRLSCAASGRIFIYNAMGWYRQAPGKERELVAAISSGGSTYYADSVKGRFTISRDNANNTVYLQMNSLKAEDTAVYYCAAPRGHGKYYSWGQGTQVTVSS", "polyreactivity (PSR sort gate)": "high polyreactivity"},
      {"sequence": "QVQLVESGGGLVQAGGSLRLSCAASGSILYYNAMGWYRQAPGKERELVAAISQRGASTYYADSVKGRFTISRDNAKNTVYLQMNSLKPEDTAVYYCAARTRLTADPRYGISSKMYYWGQGTQVTVSS", "polyreactivity (PSR sort gate)": "high polyreactivity"},
      {"sequence": "QVQLVESGGGLVQAGGSLRLSCAASGSTFHFYAMGWYRQAHGKERELVASITSRGGNTHYADSVKGRFTISRDNAKNTVYFQMNSLKPEDTAVYYCAARKGTSWKAHFRFDYWGQGTQVTVSS", "polyreactivity (PSR sort gate)": "low polyreactivity"},
      {"sequence": "QVQLVESGGGLVQAGGSLRLSCAASGSTFSQNAMGWYRQAPGKERELVAAITSGGITYYADSVKGRFTISRDNAKNTVYLQMNSLKPEDTAVYYCAADFWPSGRGVAFDYWGQGTQVTVSS", "polyreactivity (PSR sort gate)": "low polyreactivity"},
      {"sequence": "QVQLVESGGGLVQAGGSRRLSCAASGRTFSKNAMGWYRQAPGKERELVAAISGSGGSTYYADSVKGRFTISRDNAKNSVYLQMNSLKPEDTAVYYCAADGTGFRYLRYDYWGQGTQVTVSS", "polyreactivity (PSR sort gate)": "high polyreactivity"},
      {"sequence": "QVQLVESGGGLVQAGGSLRLSCAASGFTFAYNAMGWYRPAPGKERELVAAITTRTGTTYYADSVKGRFTISRDNAKNTVYLQMNSLKPEDTAVYYCAKRGYYRYYYWGQGTLVTVSS", "polyreactivity (PSR sort gate)": "high polyreactivity"},
      {"sequence": "QVQLVESGGGLVQAGGSLRLSCAASGFIFSYYVMGWYRQAPGKERELVASISARVGSTYYADSVKGRFTISRDNAKNTVYLQMNSLKPEDTAVYYCNTARVKYRWYNYWGQGTQVTVSS", "polyreactivity (PSR sort gate)": "high polyreactivity"},
      {"sequence": "QVQLVESGGGLVQAGGSLRLSCAASGRTFASYAMGWYRQAPGKERELVAVISRGGSNTNYADSVTGRFTISRDNAKNTVYLQMNSLKPEDTAVYYCADLAFKRYNPGGYDYWGQGTQVTVSS", "polyreactivity (PSR sort gate)": "high polyreactivity"},
      {"sequence": "QVQLVESGGGLVQAGGSLRLSCAASGFTFEYNAMGWYRQAPGKERELVAAISRSGGSTYYADSVKGRFTISRDNAKNTVYLQMNSLIPEDTAVYYCAAEPYPLPSYGYWGQGTQVTVSS", "polyreactivity (PSR sort gate)": "high polyreactivity"}
    ]}
  ]
}
